What was measured:
[1] = molecular target: rTBL-1 R103Q mutant lectin (Phaseolus acutifolius); assay: SEC; ENrich SEC 650 column calibrated with gel filtration standard; 200 µL of sample at 10 mg/mL; 20 mM MES, 100 mM NaCl, pH 6.5; single peak at approximately 120 kDa
[2] = molecular target: rTBL-1 R130Q mutant lectin (Phaseolus acutifolius); assay: as above

Substance: rTBL-1 R103Q mutant lectin (natural protein)
- stoichiometry N [1]: 4

Substance: rTBL-1 R130Q mutant lectin (natural protein)
- stoichiometry N [2]: 4

Reference: publication PMC11676905
